The results in this text go back to PMC4808492.

Read-outs that look alike come from different tables or passages of the source.

Experiment [1] concerns the target cation-independent M6P receptor (CI-MPR), on an affinity column (UniProt P08169). The experiment can be described thus: CI-MPR affinity column.
Experiment [2] shares this target. As to the kind of experiment: CI-MPR affinity column. This is another data set of the same source.

UniProt P08169, sequence (P08169 45-2499): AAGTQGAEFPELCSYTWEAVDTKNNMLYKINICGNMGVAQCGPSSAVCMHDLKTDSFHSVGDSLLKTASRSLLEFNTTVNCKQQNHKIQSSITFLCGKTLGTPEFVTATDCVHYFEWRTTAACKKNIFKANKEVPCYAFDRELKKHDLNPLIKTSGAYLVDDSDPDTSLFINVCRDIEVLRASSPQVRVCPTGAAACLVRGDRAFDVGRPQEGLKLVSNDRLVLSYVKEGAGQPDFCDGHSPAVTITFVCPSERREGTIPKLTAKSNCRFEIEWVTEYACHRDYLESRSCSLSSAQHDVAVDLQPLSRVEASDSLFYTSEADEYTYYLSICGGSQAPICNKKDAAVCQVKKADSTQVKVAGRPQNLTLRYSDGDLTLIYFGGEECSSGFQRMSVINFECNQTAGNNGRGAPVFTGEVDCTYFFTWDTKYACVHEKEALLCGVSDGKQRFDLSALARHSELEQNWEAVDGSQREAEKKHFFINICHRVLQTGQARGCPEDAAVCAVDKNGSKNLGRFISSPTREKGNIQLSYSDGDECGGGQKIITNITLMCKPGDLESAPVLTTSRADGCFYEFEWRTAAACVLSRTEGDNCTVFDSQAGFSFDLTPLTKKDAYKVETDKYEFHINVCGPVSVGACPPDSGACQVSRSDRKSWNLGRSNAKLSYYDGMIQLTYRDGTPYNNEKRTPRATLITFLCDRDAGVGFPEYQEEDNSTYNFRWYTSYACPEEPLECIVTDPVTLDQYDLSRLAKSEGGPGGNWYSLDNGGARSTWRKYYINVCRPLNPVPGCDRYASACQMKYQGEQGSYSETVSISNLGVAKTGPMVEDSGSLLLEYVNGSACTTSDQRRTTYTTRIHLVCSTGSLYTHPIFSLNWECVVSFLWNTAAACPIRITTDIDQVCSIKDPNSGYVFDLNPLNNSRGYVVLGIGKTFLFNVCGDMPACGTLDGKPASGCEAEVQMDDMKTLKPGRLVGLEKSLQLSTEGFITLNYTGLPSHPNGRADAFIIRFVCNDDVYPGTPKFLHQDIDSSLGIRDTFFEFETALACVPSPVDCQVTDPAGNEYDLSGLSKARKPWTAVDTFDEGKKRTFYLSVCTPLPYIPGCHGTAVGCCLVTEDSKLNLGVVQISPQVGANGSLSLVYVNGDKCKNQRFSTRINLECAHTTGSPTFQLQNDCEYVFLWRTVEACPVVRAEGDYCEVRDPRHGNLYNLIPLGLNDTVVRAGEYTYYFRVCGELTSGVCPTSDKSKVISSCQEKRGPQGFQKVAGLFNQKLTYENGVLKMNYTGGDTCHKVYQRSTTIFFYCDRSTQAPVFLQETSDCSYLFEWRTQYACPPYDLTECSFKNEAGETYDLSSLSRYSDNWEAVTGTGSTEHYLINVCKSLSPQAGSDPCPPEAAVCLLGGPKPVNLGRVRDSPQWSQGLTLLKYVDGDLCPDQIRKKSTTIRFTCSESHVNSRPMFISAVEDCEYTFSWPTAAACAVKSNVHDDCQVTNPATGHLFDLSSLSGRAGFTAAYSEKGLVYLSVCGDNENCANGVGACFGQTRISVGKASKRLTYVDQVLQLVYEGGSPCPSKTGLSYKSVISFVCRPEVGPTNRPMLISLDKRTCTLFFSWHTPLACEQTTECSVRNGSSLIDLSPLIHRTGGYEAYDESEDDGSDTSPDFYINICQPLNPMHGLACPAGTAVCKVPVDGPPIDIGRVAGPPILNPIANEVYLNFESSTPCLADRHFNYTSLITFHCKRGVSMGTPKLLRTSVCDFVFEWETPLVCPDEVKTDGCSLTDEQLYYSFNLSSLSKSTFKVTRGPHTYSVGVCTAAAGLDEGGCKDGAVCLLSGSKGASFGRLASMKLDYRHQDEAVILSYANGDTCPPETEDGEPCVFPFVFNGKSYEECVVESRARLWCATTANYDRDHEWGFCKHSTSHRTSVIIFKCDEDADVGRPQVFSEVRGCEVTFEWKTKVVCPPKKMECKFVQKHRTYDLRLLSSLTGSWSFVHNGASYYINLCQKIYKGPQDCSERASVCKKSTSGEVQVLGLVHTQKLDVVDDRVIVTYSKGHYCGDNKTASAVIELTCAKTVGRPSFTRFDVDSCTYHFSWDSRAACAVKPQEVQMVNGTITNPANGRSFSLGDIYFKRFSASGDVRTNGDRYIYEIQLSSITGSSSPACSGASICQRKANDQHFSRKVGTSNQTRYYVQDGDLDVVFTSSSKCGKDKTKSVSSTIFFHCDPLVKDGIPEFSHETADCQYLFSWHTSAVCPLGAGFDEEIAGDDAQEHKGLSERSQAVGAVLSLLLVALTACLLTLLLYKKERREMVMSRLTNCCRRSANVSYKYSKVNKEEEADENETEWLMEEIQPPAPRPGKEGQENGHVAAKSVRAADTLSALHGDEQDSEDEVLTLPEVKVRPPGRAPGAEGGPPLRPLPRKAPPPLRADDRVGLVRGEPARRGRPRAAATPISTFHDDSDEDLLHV

As for “zebrafish cathepsin D (Ctsd) from WT animals (enzyme)”, the values for the percent of enzyme activity bound to the column in experiment [1] and in experiment [2] were 24.2% and 16%, respectively.
In turn, “zebrafish cathepsin D (Ctsd) from MLII (gnptab morphant) embryos (enzyme)” yielded a percent of enzyme activity bound to the column in experiment [2] of 5%.
On to “zebrafish cathepsin K (Ctsk) from WT animals (enzyme)”, for which the results for the percent of enzyme activity bound to the column in experiment [1] and in experiment [2] were 93.1% and 86%, respectively.
The substance “zebrafish cathepsin K (Ctsk) from MLII (gnptab morphant) embryos (enzyme)” came in with a percent of enzyme activity bound to the column in experiment [2] of 17.2%.
